Test: protease stability score; higher = more stable; yeast display proteolysis, trypsin and chymotrypsin;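 also: relative to predicted unfolded state with 0 unfolded-like and 1 meaning tenfold more protease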

| Sequence | protease stability score |
| --- | --- |
| DEEDEEFKRAMDDWIRAILTGDEQRVEELFDPNVRFQVNGKETVGRDFLIHYVREWRLDSKVDIKRSEVQGDKVRVDVTMKLTIDVNGQRIHDQHKVTIIAEKIDGRWEIKELIVH | 0.676 |
| DEEDEELHRILQLLKEYWKTGDWERFHELADPNPLLIINGVENHGMDSVKHAWEEFRRRIDHNEKIEDKDSKRQGEFIVLHVKVDGHVNGRRTETDMHIILLIVNGKVKDVEIRIR | 1.38 |
| DEEDEELRRLLELLLRLYMTGDEHTLQTLADPHMKVRFHWDGREIRDHGRDALERHLKEWRVNDMDVNHFEAFNGRNMIDGILDGIINGVERRHKLELHFDLVNGRVKSVEIVLR | 1.08 |
| DEEDEERTWAWEIFVKIIRTGDEQKLHEMADPHVRLHVGDKHEHGREELVKFFIDYILSLGVDHIEVHLKREDRINGRIHIDSKLRIEVGDKEITNNTHVLFLKVDGKWILKQVEIK | -0.11 |
| DEEDEESHRLMRETIHLLLTGDEEVWAQLADPDVRVLFNGVDYHGREEFLRIWHHMVKEIRVDKHEIKTIEVQGDKVLSDIRMHVEFNGKRTKVRVNLRLQSINGRTKYLSIHIH | 1.21 |
| DEEDEETREIAEMLHRWFITGDWKALMKYVDPNMRNIIHVNGRNIHTHGWKDMVKDLKDLGLENIHVDLKSISFQGDKAHIDGQLRVGDKEEKVEIHSEVVNGRIKRLEIRVH | 1.9 |
| DEEDEHALRMARLWWKALTTGDEELLHKLMDPDVRVEINGVEIHGRETYERFLHKLRRDLGVKHIEIQFHHIELYGEKIIIEGTIFIRQGDKEHKERSIIILVVVDGRIKSSKIILL | 2.19 |
| DEEDEHFEEVLRRTRHVWKTGDWRRLHELFDPNTRIHVNGRDVIGREEASRIIYEMLRQADHFHYRIRRFEIQGDKIHSEIEVIIIVNGRLIRLDTHVVAIKVNGRWVIESEEIR | 1.48 |
| DEEDEHLHQFLEDFKHNLKTGNFEAISKNADPHVRVIFNGRRFHGMENVKRLWEELGVDHVRIDHFELIDGRIDLNTTIEQGDKHRRTRLHILIVNGRIKSIHIHFE | 1.16 |
| DEEDEHVKKAAEDFLRWWLTGDESRLLELFDPNMLLIIGDKHIHGRESVVHFFSELRERLGIDHIELEDVHIREVNGRAEFHSHILLHINGQKVKVDVRIHFHKVNGRWLFEHEHVEIR | 1.32 |
| DEEDEIAEKIMRIILRAFTTGDEETVEKLVDPHARLEFNGRETHGRESWFKLMHHLRIRRMRIHNERIHTQGDFSLSHVRIEFDGEINGKRVEDETRMEIRVIVVNGVVKSVSLSTE | 1.35 |
| DEEDEILERLFKLWIEEFLTGDWEAFHRYFDPRTRIHIGDKHHHGRTEYEKVAKHLNKRIDHVIIIIRRMEHQGDYIKVDTESRHKIDGVDISTHYILHHRIVDGKIHEIDVIYL | 0.647 |
| DEEDEILERNFRKMLEDWKTGDEEMYSKLIDPHAKVDYNGREFVGREYAVEVWHKMGVDHIILRRSDVQGDKIKLDFESRQGDKSSNLKMESEKVNGVWLLHSVRYE | 1.11 |
| DEEDEILRHFLEEFWRAIRTGDEDTLMHLMDPHAKEEVNGRELHGRHEISRHLVKLGIKHMHIDDSKRYGDKITLHITVEVNGRKIDLEVYAIKVDGRWKIEHSQIK | 1.05 |
| DEEDEITDRLAKLLQHAYHTGDWKLWLNLADPHVRVDFNGVEIHGREEITDWFRKHYRDLGVTRFEVHVHHIHNIGDKIVQETHLLVNGRTFRTEVTIIVINGRVKSEHVNLR | 0.848 |
| DEEDEITHKMLRRWFEILATGNEHLFQHYADPNVLVRYEVGDKEWRLHGREEALRYWSELRIHELKVEHFTEVGDKVHMDTRRKGEFDGRRDTKKTRVHIVIIDGRLHNVELRIV | 1.14 |
| DEEDEKTRRMAELWSKWKSTGDEELFHHFADPRTRLEIGDKKYHGRDLISKIWFKERKEIRSDINIKDVDVFNGVAILHGTLILEINGQRDSIDVTFHIVLINGRIHEVRVEWR | 0.73 |
| DEEDELAEHLLHIIIDALETGDWKFFADYFDPHTRLEIEIGDKRFQLHGRESIRKRWEEIWRELGVKHREIKSTRLIGDKIEMDVTINVGDKRIRHHIVIVIVNGRMKKEMVIVR | 1.19 |
| DEEDELFEIFIREWRRLVKTGNFKEIVDNADPHAKSVINGKELVGREHMSRLMLELGIKYYDERSWDVYGDKVVIHGREKFNGRESESIVFAEKVNGRWVLTKVEIR | 1.45 |
| DEEDELLERTLKEVAHAWRTGDWRRIEEMFDPNARVDINGVNFVGREEMHRILHEMRIEIEDFKLRRKRIVDGRLELDGEMLGIFRQGDKERRHRSRVFIVILKIDGRWVFEEVRFH | 2.43 |

From the NTF2 design screens of Basanta et al. (2020)
